{"source": "patent US20230365701A1", "about": "(Pfizer, published 2023)", "binders": {"B1": {"name": "1E01 tetravalent antibody (antibody, human IgG1, kappa)", "heavy": "QVQLVQSGAEVKKPGSSVKVSCKASGGTFSSYFWSWVRQAPGQGLEWMGRFYSGGSANYNPSLKERVTITADESTSTAYMELSSLRSEDTAVYYCARERRGYSGGFEIWGQGTLVTVSSASTKGPSVFPLAPSSKSTSGGTAALGCLVKDYFPEPVTVSWNSGALTSGVHTFPAVLQSSGLYSLSSVVTVPSSSLGTQTYICNVNHKPSNTKVDKKVEPKSCGGGGSQVQLVQSGAEVKKPGSSVKVSCKASGGTFSSYFWSWVRQAPGQGLEWMGRFYSGGSANYNPSLKERVTITADESTSTAYMELSSLRSEDTAVYYCARERRGYSGGFEIWGQGTLVTVSSASTKGPSVFPLAPSSKSTSGGTAALGCLVKDYFPEPVTVSWNSGALTSGVHTFPAVLQSSGLYSLSSVVTVPSSSLGTQTYICNVNHKPSNTKVDKKVEPKSCDKTHTCPPCPAPEAAGAPSVFLFPPKPKDTLMISRTPEVTCVVVDVSHEDPEVKFNWYVDGVEVHNAKTKPREEQYNSTYRVVSVLTVLHQDWLNGKEYKCKVSNKALPAPIEKTISKAKGQPREPQVYTLPPSREEMTKNQVSLTCLVKGFYPSDIAVEWESNGQPENNYKTTPPVLDSDGSFFLYSKLTVDKSRWQQGNVFSCSVMHEALHNHYTQKSLSLSPGK", "light": "not shown", "notes": "Extended heavy chain VH-CH1-linker-VH-CH1-hinge-CH2-CH3; AF647-labeled in the flow cytometry assay; also called tetravalent 1E01"}, "B2": {"name": "anti-LTBR clone 1E01 (Fab clone \"1E01\") (Fab, V domains shown)", "VH": "QVQLVQSGAEVKKPGSSVKVSCKASGGTFSSYFWSWVRQAPGQGLEWMGRFYSGGSANYNPSLKERVTITADESTSTAYMELSSLRSEDTAVYYCARERRGYSGGFEIWGQGTLVTVSS", "VL": "not shown", "notes": "Only VH and VL are tied to the clone; also called 1E01 antibody"}}, "key": {"[1]": {"biological_target": "chimeric LTBR with a human extracellular domain and mouse transmembrane and intracellular domains, on CT26 … (human; mouse)", "sequence (chain, as listed by the source mutant limits assumed)": "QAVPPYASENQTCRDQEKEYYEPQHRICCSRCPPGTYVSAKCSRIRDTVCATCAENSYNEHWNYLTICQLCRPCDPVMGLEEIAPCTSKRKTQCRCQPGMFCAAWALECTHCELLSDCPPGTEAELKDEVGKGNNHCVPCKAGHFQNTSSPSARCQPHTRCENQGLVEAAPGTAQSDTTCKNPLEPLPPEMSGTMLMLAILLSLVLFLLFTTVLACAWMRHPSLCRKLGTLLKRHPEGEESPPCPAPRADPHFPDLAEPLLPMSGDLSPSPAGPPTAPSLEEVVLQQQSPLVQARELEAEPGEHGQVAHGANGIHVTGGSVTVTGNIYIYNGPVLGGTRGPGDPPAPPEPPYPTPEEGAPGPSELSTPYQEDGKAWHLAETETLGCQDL", "assay": "cell-based or functional assay"}, "[2]": {"biological_target": "T1, human LTBR on cells (endogenous on HUVEC, HT29, primary human fibroblasts and moDC; LTBR-expressing HEK293) (human, UniProt P36941 31-435)", "T1 sequence (P36941 31-435 limits assumed)": "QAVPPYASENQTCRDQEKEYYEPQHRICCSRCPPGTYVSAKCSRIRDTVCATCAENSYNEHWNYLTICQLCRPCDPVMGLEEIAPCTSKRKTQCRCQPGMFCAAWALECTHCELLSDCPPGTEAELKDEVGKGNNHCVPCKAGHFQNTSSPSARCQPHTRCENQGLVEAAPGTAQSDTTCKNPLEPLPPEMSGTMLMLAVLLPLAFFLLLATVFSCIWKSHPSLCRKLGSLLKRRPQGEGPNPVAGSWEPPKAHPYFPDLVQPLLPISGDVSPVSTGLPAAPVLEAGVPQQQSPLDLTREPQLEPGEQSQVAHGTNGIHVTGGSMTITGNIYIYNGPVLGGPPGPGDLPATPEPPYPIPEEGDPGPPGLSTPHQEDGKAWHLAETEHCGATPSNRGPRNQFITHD", "assay": "cell-based or functional assay"}, "[3]": {"biological_target": "cynomolgus monkey LTBR on primary cynomolgus monkey fibroblasts (cynomolgus monkey, UniProt P36941 1-435 (human entry))", "sequence (P36941 other isoform, or with tags, fused parts or gaps limits assumed)": "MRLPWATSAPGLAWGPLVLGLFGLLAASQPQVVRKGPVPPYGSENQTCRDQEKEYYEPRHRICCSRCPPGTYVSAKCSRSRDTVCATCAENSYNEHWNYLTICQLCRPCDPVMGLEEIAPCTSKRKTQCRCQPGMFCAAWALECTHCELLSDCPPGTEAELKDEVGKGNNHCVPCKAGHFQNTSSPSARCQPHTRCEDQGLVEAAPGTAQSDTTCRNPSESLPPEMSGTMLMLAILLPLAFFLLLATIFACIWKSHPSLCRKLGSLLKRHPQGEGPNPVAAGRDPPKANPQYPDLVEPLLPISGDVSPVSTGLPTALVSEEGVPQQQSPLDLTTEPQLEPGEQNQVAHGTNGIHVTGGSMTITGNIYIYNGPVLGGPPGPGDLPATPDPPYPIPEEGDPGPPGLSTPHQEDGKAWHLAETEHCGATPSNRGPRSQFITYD", "assay": "cell-based or functional assay"}, "[4]": {"biological_target": "T1, human LTBR on cells (endogenous on …)", "assay": "flow cytometry with AF647-labeled antibody on HUVEC (endogenous human LTBR), 1.5 hours on ice", "experimental": "(§1) Endogenous human LTBR binding: 1E01 binding to endogenous LTBR on human endothelial cells (human umbilical vein endothelial cells (HUVEC)) and tumor cells (HT29 human colorectal carcinoma cells) was assessed in a flow cytometry-based assay using AF647-labeled antibody and Quantbrite™ beads. Cells were incubated with antibody for 1.5 hours on ice prior to endpoint analysis. Results confirmed the binding of 1E01 to endogenous human LTBR."}, "[5]": {"biological_target": "T1, human LTBR on cells (endogenous on …)", "assay": "flow cytometry with AF647-labeled antibody on HT29 cells (endogenous human LTBR), 1.5 hours on ice", "experimental": "as §1"}, "human LTBR protein": {"biological_target": "T2, human LTBR protein (human, UniProt P36941 31-227, limits assumed)", "T2 construct": "Protein used for the KD, binning and crystallization; In the crystal the entire extracellular domain was ordered; also called lymphotoxin beta receptor; TNFR3", "T2 sequence (P36941 31-227 limits assumed)": "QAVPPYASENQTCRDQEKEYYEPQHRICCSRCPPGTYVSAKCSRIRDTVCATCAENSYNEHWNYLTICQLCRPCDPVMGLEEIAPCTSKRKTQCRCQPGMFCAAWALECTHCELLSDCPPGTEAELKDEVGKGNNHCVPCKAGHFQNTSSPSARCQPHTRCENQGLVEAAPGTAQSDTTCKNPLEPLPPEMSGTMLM", "assay": "not stated at this place (SPR by the heading before paragraph 293, where the value is repeated); human LTBR"}}}
{"binder": "B1", "values": [{"measurement": "NFkB Activation, EC50 (ug/mL), CT26 hEC-mTM-mIC NFkB luciferase reporter cells", "setting": "[1]", "value": 0.00173, "unit": "µg/mL"}, {"measurement": "CXCL10 Release, EC50 (ug/mL), primary human dermal fibroblasts", "setting": "[2]", "value": 0.00231, "unit": "µg/mL"}, {"measurement": "CXCL10 Release, EC50 (ug/mL), primary cyno fibroblasts", "setting": "[3]", "value": 0.00902, "unit": "µg/mL"}, {"measurement": "EC50", "setting": "[4]", "value": 76, "unit": "ng/mL"}, {"measurement": "EC50", "setting": "[5]", "value": 73, "unit": "ng/mL"}]}
{"binder": "B2", "values": [{"measurement": "Kd", "setting": "human LTBR protein", "value": 115, "unit": "nM"}]}
